What was measured:
[1] = biological target: human CD3 (hCD3) naturally expressed on Jurkat cells (human) (UniProt P07766); assay: FACS on Jurkat cells
[2] = biological target: human Claudin 18.2 (hCLDN18.2) on stably-transfected HEK293 cells (human) (UniProt P56856); assay: FACS on HEK293-hCLDN18.2 cells
[3] = biological target: human CD3 (hCD3) naturally expressed on Jurkat cells (human) (UniProt P07766); assay: cell-based or functional assay
[4] = biological target: Cynomolgus macaques Claudin 18 (cynoCLDN18) on stably-transfected HEK293 cells (Cynomolgus macaques); assay: FACS on HEK293-cynoCLDN18 cells
[5] = biological target: murine Claudin 18.2 (mCLDN18.2) on stably-transfected HEK293 cells (murine) (UniProt P56857); assay: FACS on HEK293-mCLDN18.2 cells

human CD3 (hCD3) naturally expressed on Jurkat cells (human), sequence (P07766 23-207): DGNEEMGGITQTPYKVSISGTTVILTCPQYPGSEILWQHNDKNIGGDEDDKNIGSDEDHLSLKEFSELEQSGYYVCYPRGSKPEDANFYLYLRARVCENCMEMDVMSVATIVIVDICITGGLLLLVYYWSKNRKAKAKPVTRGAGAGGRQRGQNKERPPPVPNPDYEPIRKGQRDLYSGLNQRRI
human Claudin 18.2 (hCLDN18.2) on stably-transfected HEK293 cells (human), sequence (P56856 other isoform, or with tags, fused parts or gaps limits assumed): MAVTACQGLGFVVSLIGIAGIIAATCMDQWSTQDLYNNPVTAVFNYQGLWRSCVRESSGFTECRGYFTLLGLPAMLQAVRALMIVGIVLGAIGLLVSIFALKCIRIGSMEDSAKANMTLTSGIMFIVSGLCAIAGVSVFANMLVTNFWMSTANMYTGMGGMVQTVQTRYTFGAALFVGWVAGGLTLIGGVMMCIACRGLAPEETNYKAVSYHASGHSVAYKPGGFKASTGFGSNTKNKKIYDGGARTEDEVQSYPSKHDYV

## Negative-IgG1AA (antibody)
[1]
  Top mean fluorescence intensity (Top MFI): 110 MFI
[2]
  Top mean fluorescence intensity (Top MFI): 359 MFI
[3]
  Jurkat-NFAT luciferase reporter, Fluorescence value (Max): 0
[4]
  MFI (Max): 136 MFI
[5]
  MFI (Max): 75 MFI

— patent publication US20240010748A1
